# From publication PMC7010908
# T1: Native pentameric human C-reactive protein (Scripps) (human), P02741
# T1 chain: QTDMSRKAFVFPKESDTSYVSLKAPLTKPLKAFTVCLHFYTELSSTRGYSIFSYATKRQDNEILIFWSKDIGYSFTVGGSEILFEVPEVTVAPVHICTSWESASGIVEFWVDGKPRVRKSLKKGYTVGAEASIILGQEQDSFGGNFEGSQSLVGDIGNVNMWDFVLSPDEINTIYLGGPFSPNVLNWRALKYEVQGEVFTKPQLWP
# T2: Commercially sourced native C-reactive protein (Binding Site) (human), P02741
# T2 chain: T1 chain
# T3: C-reactive protein purified from human serum of patients with raised CRP levels (>100 mg/L) (human (endogenous in patient serum)), P02741
# T3 chain: T1 chain
# B1: Native pentameric human C-reactive protein (Scripps), P02741 19-224 (natural protein)
# chain: T1 chain
# B2: Commercially sourced native C-reactive protein (Binding Site), P02741 19-224 (natural protein)
# chain: T1 chain
# B3: C-reactive protein purified from human serum of patients with raised CRP levels (>100 mg/L), P02741 19-224 (natural protein)
# chain: T1 chain
# Columns and labels:
# Conditions in all cases: remark: other sources report otherwise
# [1] = biological target: T1, Native pentameric human C-reactive …; assay: SEC; HiLoad 16/60 Superdex 200 pg, elution buffer B (50 mM tris, 150 mM NaCl, pH 7.2), 0.5 ml/min; pCRP after storage in 20 mM tris, 280 mM NaCl, 1 mM EDTA with 2, 2.5, 3 or 4 M urea at 4°C, 10 weeks
# [2] = biological target: T2, Commercially sourced native C-reactive …; assay: SEC; size exclusion FPLC (recalibrated after a change of column), 0.5 ml/min; 500 μg and 100 μg of PCho affinity purified CRP loaded; fractions at the mCRP position tested by ELISA
# [3] = biological target: T3, C-reactive protein purified from human …; assay: SEC; HiLoad 16/60 Superdex 200 pg, elution with buffer A (5 mM CaCl2), 0.5 ml/min; serum CRP first purified by PCho affinity chromatography and eluted with EDTA
binder,measurement,setting,value
B1,stoichiometry N,[1],5
B2,stoichiometry N,[2],5
B3,stoichiometry N,[3],5
